Results from patent publication US20050079559.

Molecular target: bacterial recombinant GST-Smad3 (UniProt P84022)
Sequence (P84022 whole entry, looked up): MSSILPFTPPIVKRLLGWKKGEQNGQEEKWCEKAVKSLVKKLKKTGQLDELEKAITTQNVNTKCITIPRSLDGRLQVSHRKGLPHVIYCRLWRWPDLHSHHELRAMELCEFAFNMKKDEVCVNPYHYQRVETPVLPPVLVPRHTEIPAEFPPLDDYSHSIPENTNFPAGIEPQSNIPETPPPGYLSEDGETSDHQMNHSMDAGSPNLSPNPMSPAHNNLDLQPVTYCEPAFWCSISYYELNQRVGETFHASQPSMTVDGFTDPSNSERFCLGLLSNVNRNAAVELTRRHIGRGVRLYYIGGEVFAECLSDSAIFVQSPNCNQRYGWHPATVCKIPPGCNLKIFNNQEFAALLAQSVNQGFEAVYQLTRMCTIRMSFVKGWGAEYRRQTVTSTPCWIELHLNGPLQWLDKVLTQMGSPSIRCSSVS

Substance	phosphorylation of recombinant Smad3 in an in vitro kinase assay, detected by immunoblotting
phosphorylated (active) JNK	the linker region of Smad3 was directly phosphorylated by p38 and JNK
phosphorylated (active) p38	the linker region of Smad3 was directly phosphorylated by p38 and JNK
